Target: Protein A (ProA)-tagged INTAC (human) (UniProt Q8N201)
Assay: pull-down; in vitro; ProA-tagged INTAC incubated with the indicated purified subcomplexes and immobilised onto IgG resin, washed, SDS-PAGE and Coomassie blue staining; some lanes with DSIF, NELF, a DNA-RNA scaffold or a PP2A inhibitor added

stoichiometry N: 1
Substance: human RNA polymerase II overexpressed in Expi293F cells (from UniProt P24928 1-1970; P30876 1-1174; P19387 1-275; P52435 1-117) (complex)

Reference: paper PMC10501182
